Measured values as given in paper PMC12094245.

Target: human recombinant NEK2 protein (Abcam, ab42599), RED-NHS labelled (human) (UniProt P51955)
Assay: MST

B1: SPTLC1 protein tested in the MST assay (enzyme)
chain: MATATEQWVLVEMVQALYEAPAYHLILEGILILWIIRLLFSKTYKLQERSDLTVKEKEELIEEWQPEPLVPPVPKDHPALNYNIVSGPPSHKTVVNGKECINFASFNFLGLLDNPRVKAAALASLKKYGVGTCGPRGFYGTFDVHLDLEDRLAKFMKTEEAIIYSYGFATIASAIPAYSKRGDIVFVDRAACFAIQKGLQASRSDIKLFKHNDMADLERLLKEQEIEDQKNPRKARVTRRFIVVEGLYMNTGTICPLPELVKLKYKYKARIFLEESLSFGVLGEHGRGVTEHYGINIDDIDLISANMENALASIGGFCCGRSFVIDHQRLSGQGYCFSASLPPLLAAAAIEALNIMEENPGIFAVLKEKCGQIHKALQGISGLKVVGESLSPAFHLQLEESTGSREQDVRLLQEIVDQCMNRSIALTQARYLEKEEKCLPPPSIRVVVTVEQTEEELERAASTIKEVAQAVLL
Kd: 350 nM
